Target: fluorescently labeled non-covalent analog of peptide 5 (UniProt P46937)
Experiment: fluorescence polarisation

Sequence of UniProt P46937 (P46937 whole entry, looked up, tested part not stated): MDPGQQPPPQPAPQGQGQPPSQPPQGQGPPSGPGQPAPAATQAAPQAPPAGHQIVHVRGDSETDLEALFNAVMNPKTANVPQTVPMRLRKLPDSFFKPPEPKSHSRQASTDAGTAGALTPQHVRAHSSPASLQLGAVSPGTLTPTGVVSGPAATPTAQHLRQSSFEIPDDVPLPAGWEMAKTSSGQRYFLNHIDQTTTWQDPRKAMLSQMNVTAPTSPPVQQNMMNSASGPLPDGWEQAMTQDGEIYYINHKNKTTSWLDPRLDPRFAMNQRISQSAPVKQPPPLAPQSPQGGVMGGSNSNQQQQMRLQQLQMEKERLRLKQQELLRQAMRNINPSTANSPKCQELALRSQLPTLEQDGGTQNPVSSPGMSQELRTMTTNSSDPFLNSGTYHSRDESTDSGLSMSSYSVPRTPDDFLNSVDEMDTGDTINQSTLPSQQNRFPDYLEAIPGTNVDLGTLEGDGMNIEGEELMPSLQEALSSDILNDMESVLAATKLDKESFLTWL

Kd: 106 nM
Substance: 14-3-3σ full length (1-248) (natural protein)

From doi:10.1101/2021.05.06.441297
